Results from article PMC3800195 (Molecular microbiology, 2010).

Biological target: the molecule itself
Experiment: crystal structure

B1: IsdI (enzyme, Staphylococcus aureus)
chain: MFMAENRLQLQKGSAEETIERFYNRQGIETIEGFQQMFVTKTLNTEDTDEVKILTIWESEDSFNNWLNSDVFKEAHKNVRLKSDDDGQQSPILSNKVFKYDIGYHYQK
  binding result: binds
